Experimental data: patent EP4725970A1 (Fortvita Biologics Inc., dated 2026)
Substitutions are numbered along the chain they refer to. Read-outs that look alike come from different tables or passages of the source.

B1: Roche-GPRC5D/CD3 (bispecific antibody)
light 1: DIVLTQSPALAVSPGQRATISCRASQSVSISGINLMNWYQQKPGQQPKLLIYHASILASGIPTRFSGSGSGTDFTLTIDPVQADDIATYYCQQTRESPLTFGSGTNLEIKRTVAAPSVFIFPPSDRKLKSGTASVVCLLNNFYPREAKVQWKVDNALQSGNSQESVTEQDSKDSTYSLSSTLTLSKADYEKHKVYACEVTHQGLSSPVTKSFNRGEC
light 2: EVQLLESGGGLVQPGGSLRLSCAASGFTFSTYAMNWVRQAPGKGLEWVSRIRSKYNNYATYYADSVKGRFTISRDDSKNTLYLQMNSLRAEDTAVYYCVRHGNFGNSYVSWFAYWGQGTLVTVSSASVAAPSVFIFPPSDEQLKSGTASVVCLLNNFYPREAKVQWKVDNALQSGNSQESVTEQDSKDSTYSLSSTLTLSKADYEKHKVYACEVTHQGLSSPVTKSFNRGEC
heavy 1: ELQLEQSGGGLVQPGGSLTLSCAASGFTFSKYAMAWVRQAPTKGLEWVASISTGGVNTYYRDSVKARFTISRDNAKNTQYLQMDSLRSEDTATYYCATHTGDYFDYWGQGVMVTVSSASTKGPSVFPLAPSSKSTSGGTAALGCLVEDYFPEPVTVSWNSGALTSGVHTFPAVLQSSGLYSLSSVVTVPSSSLGTQTYICNVNHKPSNTKVDEKVEPKSCDKTHTCPPCPAPEAAGGPSVFLFPPKPKDTLMISRTPEVTCVVVDVSHEDPEVKFNWYVDGVEVHNAKTKPREEQYNSTYRVVSVLTVLHQDWLNGKEYKCKVSNKALGAPIEKTISKAKGQPREPQVCTLPPSRDELTKNQVSLSCAVKGFYPSDIAVEWESNGQPENNYKTTPPVLDSDGSFFLVSKLTVDKSRWQQGNVFSCSVMHEALHNHYTQKSLSLSPGK
heavy 2: not shown
notes: GPRC5D/CD3 bispecific derived from WO 2019/154890 A1
B2: F2 (87) (F2-SP34.87-SC38497) (trispecific antibody, human IgG1, kappa, lambda, L234A L235A)
heavy 1: not shown
light 1: DIVMTQSPDSLAVSLGERATINCRASESVDSYGITFMNWYQQKPGQPPKLLIYAASNQGSGVPDRFSGSGSGTDFTLTISSLQAEDVAVYYCQQSKEVPWTFGQGTKLEIKRTVAAPSVFIFPPSDEQLKSGTASVVCLLNNFYPREAKVQWKVDNALQSGNSQESVTEQDSKDSTYSLSSTLTLSKADYEKHKVYACEVTHQGLSSPVTKSFNRGEC
heavy 2: EVQLVESGGGLVQPGGSLKLSCAASGFTFNTYAMNWVRQASGKGLEWVGRIRSKYNNYATYYADSVKDRFTISRDDSKSTLYLQMNSLKTEDTAVYYCARHYNFGQSYVSWFAYWGQGTTVTVSSASTKGPSVFPLAPSSKSTSGGTAALGCLVKDYFPEPVTVSWNSGALTSGVHTFPAVLQSSGLYSLSSVVTVPSSSLGTQTYICNVNHKPSNTKVDKKVEPKSCDKTHTCPPCPAPEAAGGPSVFLFPPKPKDTLMISRTPEVTCVVVDVSHEDPEVKFNWYVDGVEVHNAKTKPREEQYNSTYRVVSVLTVLHQDWLNGKEYKCKVSNKALPAPIEKTISKAKGQPREPQVYTLPPSRDELTKNQVSLSCAVKGFYPSDIAVEWESNGQPENNYKTTPPVLDSDGSFFLVSKLTVDKSRWQQGNVFSCSVMHEALHNHYTQKSLSLSPGAGGGGSGGGGSDIQMTQSPSSLSASVGDRVTITCRASQSISRYLNWYQQKPGKAPKLLIYAASSLQSGVPSRFSGSGSGTDFTLTISSLQPEDFATYYCQQKYFDITFGCGTKVEIKGGGGSGGGGSGGGGSQLQLQESGPGLVKPSETLSLTCTVSGGSIVSSSYYWTWIRQPPGKCLEWIGSISIAGSTYYNPSLKSRVTISVDTSKNQFSLKLSSVTAADTAVYYCARDRGDQILDVWSQGTMVTVSS
light 2: QAVVTQEPSLTVSPGGTVTLTCRSSTGAVTTSNYANWVQQKPGQAPRGLIGGTNKRAPGVPARFSGSLLGDKAALTLLGAQPEDEAEYYCALWYSNLWVFGQGTKLTVLGQPKAAPSVTLFPPSSEELQANKATLVCLISDFYPGAVTVAWKADSSPVKAGVETTTPSKQSNNKYAASSYLSLTPEQWKSHRSYSCQVTHEGSTVEKTVAPTECS
B3: Inno-G (hz5E12_sp34.24_Hel_triFab) (trispecific antibody, human IgG1, kappa, lambda, L234A L235A)
heavy 1: not shown
light 1: B2 light 1
heavy 2: not shown
light 2: DIQMTQSPSSLSASVGDRVTITCRASQSISSYLNWYQDKPGKAPKLLIYAASSLQSGVPSRFSGSGSGTDFTLTISSLQPEDFATYYCQQADLPAFAFGGGTKVEIKRTVAAPSVFIFPPSDECLKSGTASVVCLLNNFYPREAKVQWKVDNALQSGNSQESVTEQDSKDSTYSLSSTLTLSKADYEKHKVYACEVTHQGLSSPVTKSFNRGES
light 3: B2 light 2 with Q40K
B4: Inno-G-7F5.3 (trispecific antibody, human IgG1, kappa, lambda, L234A L235A)
heavy 1: not shown
light 1: not shown
heavy 2: not shown
light 2: B3 light 2
light 3: B2 light 2 with Q40K
B5: B3 (87) (hz5E12_sp34.87_497_triFab) (trispecific antibody, human IgG1, kappa, lambda, L234A L235A)
heavy 1: not shown
light 1: B2 light 1
heavy 2: not shown
light 2: DIQMTQSPSSLSASVGDRVTITCRASQSISRYLNWYQDKPGKAPKLLIYAASSLQSGVPSRFSGSGSGTDFTLTISSLQPEDFATYYCQQKYFDITFGGGTKVEIKRTVAAPSVFIFPPSDECLKSGTASVVCLLNNFYPREAKVQWKVDNALQSGNSQESVTEQDSKDSTYSLSSTLTLSKADYEKHKVYACEVTHQGLSSPVTKSFNRGES
light 3: B2 light 2 with Q40K
notes: also called Exemplary antibody No. 2
B6: F2 (24) (F2-SP34.24-SC38497) (trispecific antibody, human IgG1, kappa, lambda, L234A L235A)
heavy 1: not shown
light 1: B2 light 1
heavy 2: B2 heavy 2 with Y102G
light 2: B2 light 2

Legend:
[1] = target: T1, human GPRC5D (full-length, on cells) (human, UniProt Q9NZD1 1-345); experiment: cell-based or functional assay
T1 sequence (Q9NZD1 whole entry): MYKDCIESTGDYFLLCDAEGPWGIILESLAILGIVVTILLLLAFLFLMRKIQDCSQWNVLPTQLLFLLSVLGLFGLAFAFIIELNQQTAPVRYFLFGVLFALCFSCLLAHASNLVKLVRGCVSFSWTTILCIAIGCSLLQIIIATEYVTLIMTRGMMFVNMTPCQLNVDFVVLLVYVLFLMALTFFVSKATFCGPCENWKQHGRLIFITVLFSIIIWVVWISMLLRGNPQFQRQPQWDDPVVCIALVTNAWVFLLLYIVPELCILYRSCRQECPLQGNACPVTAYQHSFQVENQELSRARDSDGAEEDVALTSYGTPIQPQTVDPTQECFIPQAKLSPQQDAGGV

[2] = target: T1, human GPRC5D (full-length, on cells); experiment: cell-based or functional assay; remark: listed apart in the source
[3] = target: T2, human CD3 (on Jurkat cells and human T cells) (human, UniProt P07766 23-207); experiment: flow cytometry, Jurkat cells
T2 construct: whole, on cells; the other chains of the complex on the cells are not described; also called CD3E
T2 sequence (P07766 23-207): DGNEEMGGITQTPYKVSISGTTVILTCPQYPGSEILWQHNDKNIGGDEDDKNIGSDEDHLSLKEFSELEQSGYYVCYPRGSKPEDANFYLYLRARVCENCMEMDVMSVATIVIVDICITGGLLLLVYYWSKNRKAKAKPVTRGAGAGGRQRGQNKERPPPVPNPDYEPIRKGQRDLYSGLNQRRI

[4] = target: T2, human CD3 (on Jurkat cells and human T …); experiment: flow cytometry, human CD4 T cells
[5] = target: T2, human CD3 (on Jurkat cells and human T …); experiment: flow cytometry, human CD8 T cells
[6] = target: T1, human GPRC5D (full-length, on cells); experiment: flow cytometry, GS-CHO-hGPRC5D cells
[7] = target: T1, human GPRC5D (full-length, on cells); experiment: flow cytometry, GS-CHO-hGPRC5D cells; remark: listed apart in the source
human CD3E&G-His/Free = target: T3, human CD3E&G-His/Free (human, UniProt P07766 23-126; P09693 23-116); experiment: BLI (Octet), 1:1 fit
T3 construct: Bought recombinant heterodimer; 'His/Free' as printed (one chain His-tagged); also called human CD3 E&G heterodimer
T3 sequence (P07766 23-126, chain 1 of 2): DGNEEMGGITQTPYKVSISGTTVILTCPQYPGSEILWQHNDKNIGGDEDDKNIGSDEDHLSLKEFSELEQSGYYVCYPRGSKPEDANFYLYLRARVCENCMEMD
T3 sequence (P09693 23-116, chain 2 of 2): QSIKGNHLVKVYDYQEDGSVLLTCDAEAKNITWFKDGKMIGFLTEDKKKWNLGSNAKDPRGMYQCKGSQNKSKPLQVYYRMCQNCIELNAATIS

cyno CD3E&G-His/Free = target: T4, cyno CD3E&G-His/Free (cynomolgus monkey, UniProt Q95LI5 22-117; Q95LI7 23-113); experiment: BLI (Octet), 1:1 fit
T4 construct: Bought recombinant heterodimer; also called monkey CD3 E&G
T4 sequence (looked up) 1: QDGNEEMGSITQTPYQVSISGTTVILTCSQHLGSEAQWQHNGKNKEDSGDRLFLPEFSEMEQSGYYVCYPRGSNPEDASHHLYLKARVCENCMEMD
T4 sequence (looked up) 2: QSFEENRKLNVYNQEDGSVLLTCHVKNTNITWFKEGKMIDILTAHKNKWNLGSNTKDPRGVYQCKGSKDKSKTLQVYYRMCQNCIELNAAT

Cyno BCMA-His = target: T5, Cyno BCMA-His (cynomolgus monkey, UniProt A0A2K5UD97 1-53); experiment: BLI (Octet), 1:1 fit
T5 construct: also called Cyno BCMA (ACRO BCA-C52H7); monkey BCMA
T5 sequence (A0A2K5UD97 entry or part of it): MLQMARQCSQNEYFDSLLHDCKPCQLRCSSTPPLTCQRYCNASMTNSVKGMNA

[8] = target: T6, human BCMA (full-length, on cells) (human, UniProt Q02223 1-184); experiment: cell-based or functional assay
T6 sequence: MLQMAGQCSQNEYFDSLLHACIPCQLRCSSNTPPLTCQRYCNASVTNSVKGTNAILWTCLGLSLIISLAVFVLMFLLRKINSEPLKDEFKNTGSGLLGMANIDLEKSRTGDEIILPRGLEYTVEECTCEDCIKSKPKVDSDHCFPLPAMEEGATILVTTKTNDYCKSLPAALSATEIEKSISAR

[9] = target: T6, human BCMA (full-length, on cells); experiment: cell-based or functional assay; remark: listed apart in the source
[10] = target: T6, human BCMA (full-length, on cells); experiment: cell-based or functional assay; remark: listed apart in the source
[11] = target: T1, human GPRC5D (full-length, on cells); experiment: cell-based or functional assay; remark: listed apart in the source
[12] = target: T6, human BCMA (full-length, on cells); experiment: flow cytometry, GS-CHO-hBCMA cells
[13] = target: T6, human BCMA (full-length, on cells); experiment: flow cytometry, GS-CHO-hBCMA cells; remark: listed apart in the source
[14] = target: T7, cynomolgus monkey BCMA (full-length, on cells) (cynomolgus monkey, UniProt A0A2K5UD97 1-183); experiment: flow cytometry, GS-CHO-cynoBCMA cells
T7 construct: whole, on cells; also called cynoBCMA; GS-CHO-cynoBCMA
T7 sequence (A0A2K5UD97 entry or part of it): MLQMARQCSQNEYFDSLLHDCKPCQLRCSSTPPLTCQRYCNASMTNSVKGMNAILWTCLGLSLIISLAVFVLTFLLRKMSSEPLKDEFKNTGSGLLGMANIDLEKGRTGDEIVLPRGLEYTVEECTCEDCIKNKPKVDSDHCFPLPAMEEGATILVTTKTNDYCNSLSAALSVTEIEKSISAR

[15] = target: T8, cynomolgus monkey GPRC5D (full-length, on cells) (cynomolgus monkey, UniProt A0A2K5W6I7 1-300); experiment: flow cytometry, GS-CHO-cynoGPRC5D cells
T8 construct: also called cynoGPRC5D; GS-CHO-cynoGPRC5D
T8 sequence (A0A2K5W6I7 entry or part of it limits assumed, form in doubt): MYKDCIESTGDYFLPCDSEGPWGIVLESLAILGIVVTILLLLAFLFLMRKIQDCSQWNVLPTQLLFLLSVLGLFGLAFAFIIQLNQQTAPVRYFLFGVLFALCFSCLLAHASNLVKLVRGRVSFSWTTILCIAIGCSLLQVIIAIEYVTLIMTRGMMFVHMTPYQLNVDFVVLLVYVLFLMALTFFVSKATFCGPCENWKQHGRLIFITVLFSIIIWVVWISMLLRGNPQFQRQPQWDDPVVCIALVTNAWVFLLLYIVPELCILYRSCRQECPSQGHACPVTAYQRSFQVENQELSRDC

[16] = target: T1, human GPRC5D (full-length, on cells); experiment: cell-based or functional assay; remark: listed apart in the source

Binder	EC50 of PBMC killing of H929 ko BCMA cells (LDH) [1]	EC50 of PBMC killing of H929 ko BCMA cells, donor1 [2]	EC50 [3]	EC50 [4]	EC50 [5]	EC50 [6]	EC50 [7]	Kd (human CD3E&G-His/Free)	koff (human CD3E&G-His/Free)	kon (human CD3E&G-His/Free)	Kd (cyno CD3E&G-His/Free)	koff (cyno CD3E&G-His/Free)	kon (cyno CD3E&G-His/Free)	Kd (Cyno BCMA-His)	koff (Cyno BCMA-His)	kon (Cyno BCMA-His)	EC50 of PBMC killing of H929 ko GPRC5D cells (LDH) [8]	EC50 of PBMC killing of H929 ko GPRC5D cells (LDH) [9]	EC50 of PBMC killing of H929 ko GPRC5D cells, donor1 [10]	EC50 of PBMC killing of H929 ko BCMA cells (LDH) [11]	other results
B1	0.00419 nM	0.00486 nM	30.4 nM	66.6 nM	65.8 nM	16 nM	9.78 nM														
B2	0.0256 nM	0.0342 nM				98.6 nM	94.1 nM	55 nM	0.0131 s⁻¹	239000 M⁻¹ s⁻¹	71.1 nM	0.0124 s⁻¹	175000 M⁻¹ s⁻¹	1.55 nM	0.000961 s⁻¹	621000 M⁻¹ s⁻¹	0.0677 nM	0.428 nM	0.0304 nM	0.00739 nM	EC50 [12]: 120 nM; EC50 [13]: 211 nM; EC50 [14]: 117 nM; EC50 [15]: 196 nM
B3																					EC50 of PBMC killing of L363 cells [16]: 0.355 nM
B4																					EC50 of PBMC killing of L363 cells [16]: 1.07 nM
B5		0.0663 nM					132 nM	69.4 nM	0.0151 s⁻¹	218000 M⁻¹ s⁻¹	61.1 nM	0.0131 s⁻¹	214000 M⁻¹ s⁻¹	1.58 nM	0.00122 s⁻¹	773000 M⁻¹ s⁻¹	0.176 nM		0.346 nM	0.025 nM	EC50 [12]: 37.7 nM
B6	0.004 nM		8.94 nM	32.5 nM	33.7 nM	73.3 nM		17.2 nM	0.00765 s⁻¹	445000 M⁻¹ s⁻¹	12.5 nM	0.00597 s⁻¹	476000 M⁻¹ s⁻¹					0.475 nM			EC50 [13]: 142 nM; EC50 [14]: 83 nM; EC50 [15]: 108 nM
